Laboratory results reported in patent publication EP4741420A1, “PHARMACEUTICAL COMPOSITION FOR PREVENTING OR TREATING OBESITY COMPRISING GLP ANALOGUE AS ACTIVE INGREDIENT” (priority 2023, dated 2025).
Like-named read-outs stand apart in the source and are kept apart here. Ends that are not written are not given here. Peptide text beside a SMILES is read from it. * marks the point of attachment. Palmitoyl = CCCCCCCCCCCCCCCC(=O)*

Experiments:
[1] = in vivo; cited from earlier work
GLP-2 = target: T1, GLP-2 (Homo sapiens, UniProt O95838); test: GLP-2 activity, cell-based cAMP assay (same method as Example 2); conditions: for GLP-2 activity Compared to GLP-2: Example 5, relative to GLP-2; for EC50: Example 5
T1 sequence (O95838 1-553): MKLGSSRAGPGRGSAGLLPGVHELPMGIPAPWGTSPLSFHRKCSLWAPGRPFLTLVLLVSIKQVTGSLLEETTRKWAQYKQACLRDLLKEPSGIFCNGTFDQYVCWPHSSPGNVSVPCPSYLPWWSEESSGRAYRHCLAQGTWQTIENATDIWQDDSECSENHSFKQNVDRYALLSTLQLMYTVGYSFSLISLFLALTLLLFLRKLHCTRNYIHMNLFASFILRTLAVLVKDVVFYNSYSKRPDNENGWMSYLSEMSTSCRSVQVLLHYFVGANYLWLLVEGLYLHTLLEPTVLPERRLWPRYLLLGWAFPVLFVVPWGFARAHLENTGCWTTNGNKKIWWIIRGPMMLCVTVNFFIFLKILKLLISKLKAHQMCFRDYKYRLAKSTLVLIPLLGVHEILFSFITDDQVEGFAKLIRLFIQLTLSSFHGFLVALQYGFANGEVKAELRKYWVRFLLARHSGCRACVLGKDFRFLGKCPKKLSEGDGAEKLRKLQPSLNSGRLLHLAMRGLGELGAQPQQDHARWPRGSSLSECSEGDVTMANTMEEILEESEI

[2] = Mouse PK after single subcutaneous administration, LC-MS/MS of plasma; type: in vivo, mice
Method: Each of the experimental groups and the control was subcutaneously administered once to the dorsal area of a total of 12 mice using a 1 mL syringe equipped with a 26-gauge needle at a dose of 0.2 mg/5 mL/kg. After drug administration, approximately 0.04 to 0.05 mL of blood was collected per individual at the time scheduled for the orbital vein (4 mice were alternately sampled), and the blood collection times were 1, 2, 4, 8, 24 ,32 ,48, 56, 72, 96, and 120 hours. All plasma samples were analyzed using a self-developed LC-MS/MS assay. Pharmacokinetic analysis of blood drugs was performed using non-compartmental analysis, and analysis of pharmacokinetic parameters was performed using Phoenix WinNolin 64 (Version. 8.3.5 340).

C57BL/6 DIO mice [3] = test: Diet-induced obesity mouse model: body weight and food intake (Example 3); type: in vivo; conditions: 4 weeks administration, 0.20 mg/kg/dose
C57BL/6 DIO mice [4] = test: Diet-induced obesity mouse model: blood/serum biochemical tests (Example 3); type: in vivo; conditions: after 4 weeks, 0.20 mg/kg/dose (dose from Table 3)
Method: Here, the body weight and food intake were measured daily.
In addition, after the experiment was completed, blood and serum samples were obtained from each mouse model, and biochemical tests were performed for blood glucose, total cholesterol, high-density lipoprotein (HDL), low-density lipoprotein (LDL), and triglycerides.

[5] = target: GLP-1R (on GLP-1R/CHO cells, DiscoverX 95-0062C2) (UniProt P43220); test: cell-based or functional assay
GLP-1R (on GLP-1R/CHO cells, DiscoverX 95-0062C2) (UniProt P43220), sequence (P43220 24-463 limits assumed): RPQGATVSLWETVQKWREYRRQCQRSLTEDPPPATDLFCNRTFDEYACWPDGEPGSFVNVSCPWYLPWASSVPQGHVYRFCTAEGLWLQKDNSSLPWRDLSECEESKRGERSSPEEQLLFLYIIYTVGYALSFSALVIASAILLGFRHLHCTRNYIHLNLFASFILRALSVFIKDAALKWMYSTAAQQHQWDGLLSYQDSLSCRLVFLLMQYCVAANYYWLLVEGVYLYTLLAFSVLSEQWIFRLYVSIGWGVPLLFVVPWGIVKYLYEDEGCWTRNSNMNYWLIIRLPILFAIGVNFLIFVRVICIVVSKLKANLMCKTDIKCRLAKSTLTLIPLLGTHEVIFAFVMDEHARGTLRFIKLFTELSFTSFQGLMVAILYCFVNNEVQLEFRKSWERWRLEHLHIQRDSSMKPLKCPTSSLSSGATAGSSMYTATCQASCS

GLP-1R = GLP-1R (Homo sapiens, UniProt P43220); test: GLP-1 activation: cell-based cAMP assay in GLP-1R/CHO cells; conditions: Example 5, relative to Exendin-4
GLP-1R, sequence (P43220 24-463): as the sequence (P43220 24-463 limits assumed) above

[6] = target: T2, GLP-1R (on GLP-1R/CHO cells, DiscoverX 95-0062C2) (UniProt P43220 24-463); test: cell-based or functional assay
T2 sequence (P43220 24-463 limits assumed): as above

[7] = target: T2, GLP-1R (on GLP-1R/CHO cells, DiscoverX …); test: cell-based or functional assay; remark: listed apart in the source
[8] = C57BL/6N male mice, single subcutaneous dose 0.2 mg/5 mL/kg, plasma
[9] = male, C57BL/6N, mouse, in vivo, sc

GLP-1
half-life (t1/2) [1]: < 2 min

HGEGTFTSDLSTYLDALAAC(+mPEG)DFINWLIQTKITDKK(+C16 FA) (HGEGTFTSDLSTYLDALAAC(mPEG 3.4 kDa)DFINWLIQTKITDKK(C16 fatty acid)) [HU020M6, 3.4kDa maleimidated PEG conjugated to cysteine at position 20, C16 fatty acid]
GLP-2 activity Compared to GLP-2 (GLP-2): ~ 0.02%
EC50 (GLP-2; read-out: GLP-2 activity (EC50)): > 10000 nM
AUClast [2, 8]: 6508.0 ng·h/mL
Cmax [2, 8]: 433.6 ng/mL
T1/2 [2, 8]: 7.0 h
Tmax [2, 8]: 8.0 h

CCCCCCCCCCCCCCCC(=O)N[C@@H](CCC(=O)NCCCC[C@H](NC(=O)[C@H](C)NC(=O)[C@H](C)NC(=O)[C@H](CCC(N)=O)NC(=O)CNC(=O)[C@H](CCC(=O)O)NC(=O)[C@H](CC(C)C)NC(=O)[C@H](Cc1ccc(O)cc1)NC(=O)[C@H](CO)NC(=O)[C@H](CO)NC(=O)[C@@H](NC(=O)[C@H](CC(=O)O)NC(=O)[C@H](CO)NC(=O)[C@@H](NC(=O)[C@H](Cc1ccccc1)NC(=O)[C@@H](NC(=O)CNC(=O)[C@H](CCC(=O)O)NC(=O)[C@H](C)NC(=O)[C@@H](N)Cc1c[nH]cn1)[C@@H](C)O)[C@@H](C)O)C(C)C)C(=O)N[C@@H](CCC(=O)O)C(=O)N[C@@H](Cc1ccccc1)C(=O)N[C@H](C(=O)N[C@@H](C)C(=O)N[C@@H](Cc1c[nH]c2ccccc12)C(=O)N[C@@H](CC(C)C)C(=O)N[C@H](C(=O)N[C@@H](CCCNC(=N)N)C(=O)NCC(=O)N[C@@H](CCCNC(=N)N)C(=O)NCC(=O)O)C(C)C)[C@@H](C)CC)C(=O)O [Liraglutide, reference compound]
Cumulative food intake (C57BL/6 DIO mice [3]): 58.5 ± 2.5 g
Weight (C57BL/6 DIO mice [3]): 40.1 ± 4.9 g
Blood glucose (C57BL/6 DIO mice [4]): 209.2 ± 26.7 mg/dL
High-density lipoprotein (C57BL/6 DIO mice [4]): 74.7 ± 2.6 mg/dL
Low-density lipoprotein (C57BL/6 DIO mice [4]): 9.7 ± 3.3 mg/dL
Triglyceride (C57BL/6 DIO mice [4]): 9.6 ± 0.8 mg/dL

Semaglutide (peptide)
GLP-1 activity, Compared to GLP-1 (Exendin-4) [5]: 24.5%

CC[C@H](C)[C@H](NC(=O)[C@H](Cc1ccccc1)NC(=O)[C@H](CC(=O)O)NC(=O)[C@H](CCCNC(=N)N)NC(=O)[C@H](C)NC(=O)[C@H](C)NC(=O)[C@H](CC(C)C)NC(=O)[C@H](C)NC(=O)[C@H](CC(=O)O)NC(=O)[C@H](CC(C)C)NC(=O)[C@H](Cc1ccc(O)cc1)NC(=O)[C@@H](NC(=O)[C@H](CO)NC(=O)[C@H](CC(C)C)NC(=O)[C@H](CC(=O)O)NC(=O)[C@H](CO)NC(=O)[C@@H](NC(=O)[C@H](Cc1ccccc1)NC(=O)[C@@H](NC(=O)CNC(=O)[C@H](CCC(=O)O)NC(=O)CNC(=O)[C@@H](N)Cc1c[nH]cn1)[C@@H](C)O)[C@@H](C)O)[C@@H](C)O)C(=O)N[C@@H](CC(N)=O)C(=O)N[C@@H](Cc1c[nH]c2ccccc12)C(=O)N[C@@H](CC(C)C)C(=O)N[C@H](C(=O)N[C@@H](CCC(N)=O)C(=O)N[C@H](C(=O)N[C@@H](CCCCN)C(=O)N[C@H](C(=O)N[C@H](C(=O)N[C@@H](CC(=O)O)C(=O)N[C@@H](CCCCN)C(=O)N[C@@H](CCCCNC(=O)CC[C@H](NC(=O)CCCCCCCCCCCCCCCCCCC(=O)O)C(=O)O)C(=O)O)[C@@H](C)O)[C@@H](C)CC)[C@@H](C)O)[C@@H](C)CC [HU020M2] (HELM PEPTIDE1{H.G.E.G.T.F.T.S.D.L.S.T.Y.L.D.A.L.A.A.R.D.F.I.N.W.L.I.Q.T.K.I.T.D.K.K}|PEPTIDE2{[O=C(O)CCCCCCCCCCCCCCCCCCC(=O)[*:2]].[gGlu]}$PEPTIDE1,PEPTIDE2,35:R3-2:R2$$$V2.0; N-terminus and C-terminus assumed)
GLP-1 activity Compared to GLP-1 (Exendin-4) (GLP-1R): 1.5%
EC50 (GLP-2): > 10000 nM
GLP-2 activity Compared to GLP-2 (GLP-2): ~ 0.02%
Tmax [2, 9]: 12 h
half-life [2, 9]: 15.9 h

CC[C@H](C)[C@H](NC(=O)[C@H](Cc1ccccc1)NC(=O)[C@H](CC(=O)O)NC(=O)[C@H](CCCNC(=N)N)NC(=O)[C@H](C)NC(=O)[C@H](C)NC(=O)[C@H](CC(C)C)NC(=O)[C@H](C)NC(=O)[C@H](CC(=O)O)NC(=O)[C@H](CC(C)C)NC(=O)[C@H](Cc1ccc(O)cc1)NC(=O)[C@@H](NC(=O)[C@H](CO)NC(=O)[C@H](CC(C)C)NC(=O)[C@H](CC(=O)O)NC(=O)[C@H](CO)NC(=O)[C@@H](NC(=O)[C@H](Cc1ccccc1)NC(=O)[C@@H](NC(=O)CNC(=O)[C@H](CCC(=O)O)NC(=O)C(C)(C)NC(=O)[C@@H](N)Cc1c[nH]cn1)[C@@H](C)O)[C@@H](C)O)[C@@H](C)O)C(=O)N[C@@H](CCCCNC(=O)CC[C@H](NC(=O)CCCCCCCCCCCCCCCCC(=O)O)C(=O)O)C(=O)N[C@@H](Cc1ccccc1)C(=O)N[C@@H](C)C(=O)N[C@@H](Cc1c[nH]c2ccccc12)C(=O)N[C@@H](CC(C)C)C(=O)N[C@H](C(=O)N[C@@H](CCC(N)=O)C(=O)N[C@H](C(=O)N[C@@H](CCCCN)C(=O)N[C@H](C(=O)N[C@H](C(=O)N[C@@H](CC(=O)O)C(=O)O)[C@@H](C)O)[C@@H](C)CC)[C@@H](C)O)[C@@H](C)CC [HU020M7] (HELM PEPTIDE1{H.[Aib].E.G.T.F.T.S.D.L.S.T.Y.L.D.A.L.A.A.R.D.F.I.K.F.A.W.L.I.Q.T.K.I.T.D}|PEPTIDE2{[O=C(O)CCCCCCCCCCCCCCCCC(=O)[*:2]].[gGlu]}$PEPTIDE1,PEPTIDE2,24:R3-2:R2$$$V2.0; N-terminus and C-terminus assumed)
GLP-1 activity Compared to GLP-1 (Exendin-4) (GLP-1R): 20.2%
GLP-2 activity Compared to GLP-2 (GLP-2): < 4.0%

HGEGTFTSDLSTYLDALAARDFINWLIQTKITD [HU020]
EC50, cAMP increase in GLP-1R/CHO cells, average (n=4) [6]: 0.0048 nM
Relative to GLP-1 (Exendin-4) %, cAMP in GLP-1R/CHO cells, average (n=4) [6]: 199%
GLP-1 activity (EC50, pM) [7]: 4.15 pM
GLP-1 activity, Compared to GLP-1 (Exendin-4) [7]: 171%

HGEGTFTSDLSTYLDALAARDFINWLIQTKITDKK(Palmitoyl) [HU020K2FA]
EC50, cAMP increase in GLP-1R/CHO cells, average (n=4) [6]: 0.0151 nM
Relative to GLP-1 (Exendin-4) %, cAMP in GLP-1R/CHO cells, average (n=4) [6]: 63.4%
GLP-1 activity (EC50, pM) [7]: 30.1 pM
GLP-1 activity, Compared to GLP-1 (Exendin-4) [7]: 23.6%
